Source: patent publication US20210230286A1 (published 2021)
Where no end group is shown, it is not given here.

Target: T1, PD-L1 protein (human, UniProt Q9NZQ7 19-238, limits assumed)
T1 construct: Plate-coated recombinant protein; also called human PD-L1 protein
Assay: ELISA: PD-L1 coated at 2 ug/ml, FITC-labelled PPLC titrated, HRP anti-FITC detection, OD 410 nm
Procedure: A 96-well ELISA plate was coated with 2μg/ml PD-L1 protein at 4° C. overnight. […] After incubation, HRP-conjugated anti-FITC antibody was added, incubated for 1 h, and then ABTS coloring solution was added. The OD value at 410 nm was measured using a M5 microplate reader, and GraphPad Prism 6 was used for plotting and analysis.

T1 sequence (Q9NZQ7 19-238 limits assumed): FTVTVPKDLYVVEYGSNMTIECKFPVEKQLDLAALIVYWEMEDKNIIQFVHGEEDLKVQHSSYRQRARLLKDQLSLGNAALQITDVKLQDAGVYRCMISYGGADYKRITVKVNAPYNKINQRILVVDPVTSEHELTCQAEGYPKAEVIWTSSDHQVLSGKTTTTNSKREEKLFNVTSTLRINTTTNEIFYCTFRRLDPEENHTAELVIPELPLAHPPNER

Kd: 750 nM
B1: PPLC peptide labeled with FITC (peptide)
peptide: VSVSHFQKVWVV
modifications: also: FITC label, attachment not given here
notes: Chemically synthesized peptide; The FITC-labelled form was used in the direct ELISA, flow cytometry and confocal assays; also called FITC-labeled PPLC
